Data: patent US20240400638A1, “COMBINATION OF RELAXIN AND VASOPRESSIN ANALOGUES FOR TREATMENT OF RENAL DISORDERS OR CONDITIONS” (River 2 Renal Corp., priority 2021, published 2024)
Numbered stars: 1 amine (or outer) side, 2 acyl side, 3 side chain; on linkers, the order of the positions; unused ones are H or OH. Square brackets hold non-standard residues; d marks the D form. Side chains are listed from the residue outwards. * marks the point of attachment. TTDS = 4-[3-[2-[2-(3-aminopropoxy)ethoxy]ethoxy]propylamino]-4-oxo-butanoyl; Trp(5-F) = N[C@@H](Cc1c[nH]c2ccc(F)cc12)C(=O)O; Phe(4-F) = N[C@@H](Cc1ccc(F)cc1)C(=O)O; γGlu = O=C(O)[C@H](CCC(=O)[*:2])N[*:1]; Stearoyl = CCCCCCCCCCCCCCCCCC(=O)*; Palmitoyl = CCCCCCCCCCCCCCCC(=O)*; Myristoyl = CCCCCCCCCCCCCC(=O)*; Cit = NC(=O)NCCC[C@H](N)C(=O)O; αMeK = C[C@](N)(CCCCN)C(=O)O; AEEA = NCCOCCOCC(=O)O; Aib = CC(C)(N)C(=O)O

T1: human RXFP1 (human, UniProt Q9HBX9 1-757)
T1 sequence (looked up): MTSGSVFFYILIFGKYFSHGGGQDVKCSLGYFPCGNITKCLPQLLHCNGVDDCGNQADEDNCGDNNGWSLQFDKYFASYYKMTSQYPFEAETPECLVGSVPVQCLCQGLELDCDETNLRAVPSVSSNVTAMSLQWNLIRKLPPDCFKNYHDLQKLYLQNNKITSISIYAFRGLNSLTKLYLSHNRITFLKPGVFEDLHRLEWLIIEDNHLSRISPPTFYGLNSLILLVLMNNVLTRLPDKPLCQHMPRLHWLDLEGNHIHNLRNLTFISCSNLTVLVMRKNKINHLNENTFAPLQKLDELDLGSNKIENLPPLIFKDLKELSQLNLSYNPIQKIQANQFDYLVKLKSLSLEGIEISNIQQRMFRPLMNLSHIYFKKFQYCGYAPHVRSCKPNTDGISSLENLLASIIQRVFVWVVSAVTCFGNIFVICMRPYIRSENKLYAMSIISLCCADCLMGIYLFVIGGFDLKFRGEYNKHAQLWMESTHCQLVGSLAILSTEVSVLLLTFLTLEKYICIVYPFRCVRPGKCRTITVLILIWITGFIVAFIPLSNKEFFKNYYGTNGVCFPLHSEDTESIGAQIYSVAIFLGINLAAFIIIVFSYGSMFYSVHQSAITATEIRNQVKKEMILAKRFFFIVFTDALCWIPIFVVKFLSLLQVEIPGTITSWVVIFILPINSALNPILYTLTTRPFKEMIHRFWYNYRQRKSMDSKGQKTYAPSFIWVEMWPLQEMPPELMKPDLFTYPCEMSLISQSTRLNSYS


target: T1, human RXFP1; test: cell-based or functional assay

Binder | EC50 (nM), OVCAR 5 cells (cAMP) | EMax, OVCAR 5 cells (cAMP)
Ac-LEGREKVRAK(Ac)I[Aib][Aib]EGK([TTDS-TTDS-TTDS-γGlu-γGlu-γGlu-Palmitoyl])STF[dS]KRAK(Ac)-NH2 [Relaxin peptide analogue of SEQ ID NO: 14] | 3.2 nM | 90%
Ac-LEGREKVRAK(Ac)I[Aib][Aib]EGK([TTDS-TTDS-γGlu-γGlu-γGlu-Palmitoyl])STWS[dK]RAK(Ac)-NH2 [Relaxin peptide analogue of SEQ ID NO: 17] | 4.6 nM | 91%
Ac-LEGREKVRAK(Ac)I[Aib][Aib]EGK([TTDS-TTDS-TTDS-γGlu-γGlu-γGlu-Palmitoyl])STF[Aib]KRAK(Ac)-NH2 [Relaxin peptide analogue of SEQ ID NO: 15] | 2.1 nM | 85%
Ac-LEGREKVRAK(Ac)I[Aib][Aib]EGK([TTDS-TTDS-TTDS-γGlu-γGlu-γGlu-Palmitoyl])STWS[αMeK]RAK(Ac)-NH2 [Relaxin peptide analogue of SEQ ID NO: 11] | 0.83 nM | 93%
Ac-LEGREKVRAK(Ac)I[Aib][Aib]EGK([TTDS-TTDS-TTDS-γGlu-γGlu-γGlu-Palmitoyl])STFSKRAK(Ac)-NH2 [Relaxin peptide analogue of SEQ ID NO: 13] | 2.12 nM | 91%
Ac-LEGREKVRAK(Ac)I[Aib][Aib]EGK([TTDS-TTDS-TTDS-γGlu-γGlu-γGlu-Palmitoyl])STFVRRAK(Ac)-NH2 [Relaxin peptide analogue of SEQ ID NO: 94] | 1.74 nM | 88%
Ac-LEGREKVRAK(Ac)I[Aib][Aib]EGK([TTDS-TTDS-TTDS-γGlu-γGlu-γGlu-Palmitoyl])STFS[Aib]RAK(Ac)-NH2 [Relaxin peptide analogue of SEQ ID NO: 2] | 2.4 nM | 99%
LEGREKVRAKIXXEGKSTFSKRAK (Ac-L-E-G-R-E-K-V-R-A-K(Ac)-I-Aib-Aib-E-G-K(PEG2DGA-PEG2DGA-PEG2DGA-gE-gE-gE-Palm)-S-T-F-S-Mly-R-A-K(Ac)-NH2) [Relaxin peptide analogue of SEQ ID NO: 22] | 1 nM | 92%
Ac-LEGREKVRAK(Ac)I[Aib][Aib]EGK([TTDS-TTDS-TTDS-γGlu-γGlu-γGlu-Myristoyl])STFS[αMeK]RAK(Ac)-NH2 [Relaxin peptide analogue of SEQ ID NO: 95] | 1.8 nM | 91%
Ac-LEGRERVRAK(Ac)I[Aib][Aib]EGK([TTDS-TTDS-TTDS-γGlu-γGlu-γGlu-Palmitoyl])ST[Trp(5-F)]S[Aib]RRK(Ac)-NH2 [Relaxin peptide analogue of SEQ ID NO: 92] | 0.1 nM | 99%
Ac-LEGREKVRAK(Ac)I[Aib][Aib]EGK([AEEA-AEEA-AEEA-γGlu-γGlu-γGlu-Palmitoyl])STWS[Aib]RKK(Ac)-NH2 (SMILES CCCCCCCCCCCCCCCC(=O)N[C@@H](CCC(=O)N[C@@H](CCC(=O)N[C@@H](CCC(=O)NCCOCCOCC(=O)NCCOCCOCC(=O)NCCOCCOCC(=O)NCCCC[C@H](NC(=O)CNC(=O)[C@H](CCC(=O)O)NC(=O)C(C)(C)NC(=O)C(C)(C)NC(=O)[C@@H](NC(=O)[C@H](CCCCNC(C)=O)NC(=O)[C@H](C)NC(=O)[C@H](CCCNC(=N)N)NC(=O)[C@@H](NC(=O)[C@H](CCCCN)NC(=O)[C@H](CCC(=O)O)NC(=O)[C@H](CCCNC(=N)N)NC(=O)CNC(=O)[C@H](CCC(=O)O)NC(=O)[C@H](CC(C)C)NC(C)=O)C(C)C)[C@@H](C)CC)C(=O)N[C@@H](CO)C(=O)N[C@H](C(=O)N[C@@H](Cc1c[nH]c2ccccc12)C(=O)N[C@@H](CO)C(=O)NC(C)(C)C(=O)N[C@@H](CCCNC(=N)N)C(=O)N[C@@H](CCCCN)C(=O)N[C@@H](CCCCNC(C)=O)C(N)=O)[C@@H](C)O)C(=O)O)C(=O)O)C(=O)O) [Relaxin peptide analogue of SEQ ID NO: 19] | 11.5 nM | 94%
Ac-LEGREKVRAK(Ac)I[Aib][Aib]EGK([TTDS-TTDS-TTDS-γGlu-γGlu-γGlu-Myristoyl])STFS[αMeK]RAK-NH2 [Relaxin peptide analogue of SEQ ID NO: 96] | 0.88 nM | 92%
Ac-LEGREKVRA[Cit]I[Aib][Aib]EGK([TTDS-TTDS-TTDS-γGlu-γGlu-γGlu-Palmitoyl])STFS[αMeK]RAK(Ac)-NH2 [Relaxin peptide analogue of SEQ ID NO: 12] | 0.93 nM | 90%
Ac-LEGREKVRAK(Ac)I[Aib][Aib]EGK([TTDS-TTDS-TTDS-γGlu-γGlu-γGlu-Stearoyl])STWS[Aib]RKK(Ac)-NH2 [Relaxin peptide analogue of SEQ ID NO: 20] | 0.15 nM | 96%
Ac-LEGREKVRAK(Ac)I[Aib][Aib]EGK([TTDS-TTDS-TTDS-γGlu-γGlu-γGlu-Palmitoyl])STFTRRAK(Ac)-NH2 [Relaxin peptide analogue of SEQ ID NO: 93] | 0.77 nM | 86%
Ac-LEGRERVRAK(Ac)I[Aib][Aib]EGK([TTDS-TTDS-TTDS-γGlu-γGlu-γGlu-Palmitoyl])ST[Phe(4-F)]S[Aib]RRK(Ac)-NH2 [Relaxin peptide analogue of SEQ ID NO: 91] | 0.09 nM | 97%
Ac-LEGREKVRAK(Ac)I[Aib][Aib]EGK([AEEA-AEEA-AEEA-AEEA-γGlu-γGlu-γGlu-Stearoyl])STWS[Aib]RKK(Ac)-NH2 (SMILES CCCCCCCCCCCCCCCCCC(=O)N[C@@H](CCC(=O)N[C@@H](CCC(=O)N[C@@H](CCC(=O)NCCOCCOCC(=O)NCCOCCOCC(=O)NCCOCCOCC(=O)NCCOCCOCC(=O)NCCCC[C@H](NC(=O)CNC(=O)[C@H](CCC(=O)O)NC(=O)C(C)(C)NC(=O)C(C)(C)NC(=O)[C@@H](NC(=O)[C@H](CCCCNC(C)=O)NC(=O)[C@H](C)NC(=O)[C@H](CCCNC(=N)N)NC(=O)[C@@H](NC(=O)[C@H](CCCCN)NC(=O)[C@H](CCC(=O)O)NC(=O)[C@H](CCCNC(=N)N)NC(=O)CNC(=O)[C@H](CCC(=O)O)NC(=O)[C@H](CC(C)C)NC(C)=O)C(C)C)[C@@H](C)CC)C(=O)N[C@@H](CO)C(=O)N[C@H](C(=O)N[C@@H](Cc1c[nH]c2ccccc12)C(=O)N[C@@H](CO)C(=O)NC(C)(C)C(=O)N[C@@H](CCCNC(=N)N)C(=O)N[C@@H](CCCCN)C(=O)N[C@@H](CCCCNC(C)=O)C(N)=O)[C@@H](C)O)C(=O)O)C(=O)O)C(=O)O) [Relaxin peptide analogue of SEQ ID NO: 21] | 0.65 nM | 93%
Ac-LEGREKVRAK(Ac)I[Aib][Aib]EGK([TTDS-TTDS-γGlu-γGlu-Palmitoyl])STFS[αMeK]RAK(Ac)-NH2 [Relaxin peptide analogue of SEQ ID NO: 9] | 0.7 nM | 93%
Ac-LEGREKVRAK(Ac)I[Aib][Aib]EGK([TTDS-TTDS-γGlu-γGlu-γGlu-Palmitoyl])STWS[dK]RKK(Ac)-NH2 [Relaxin peptide analogue of SEQ ID NO: 18] | 1.54 nM | 92%
Ac-LEGREKVRAK(Ac)I[Aib][Aib]EGK([TTDS-TTDS-γGlu-γGlu-γGlu-γGlu-Palmitoyl])STFS[αMeK]RAK(Ac)-NH2 [Relaxin peptide analogue of SEQ ID NO: 10] | 0.79 nM | 95%
Ac-LEGRELVRAK(Ac)I[Aib][Aib]EGK([TTDS-TTDS-TTDS-γGlu-γGlu-γGlu-Palmitoyl])STFS[αMeK]RAK(Ac)-NH2 [Relaxin peptide analogue of SEQ ID NO: 23] | 11.1 nM | 92%
Ac-LEGREKVRAK(Ac)I[Aib][Aib]EGK([TTDS-TTDS-TTDS-γGlu-γGlu-γGlu-γGlu-Myristoyl])STFS[αMeK]RAK-NH2 [Relaxin peptide analogue of SEQ ID NO: 97] | 0.29 nM | 98%
Ac-LEGREFVRAK(Ac)I[Aib][Aib]EGK([TTDS-TTDS-TTDS-γGlu-γGlu-γGlu-Palmitoyl])STFS[αMeK]RAK(Ac)-NH2 [Relaxin peptide analogue of SEQ ID NO: 24] | 36.4 nM | 100%
Ac-LEGREKVRAK(Ac)I[Aib][Aib]EGK([TTDS-TTDS-γGlu-γGlu-γGlu-Palmitoyl])STFS[dK]RAK(Ac)-NH2 [Relaxin peptide analogue of SEQ ID NO: 16] | 6.8 nM | 88%
